# In US7074765B2, “Synthetic peptide analogs of Arg-Pro-Pro-Gly-Phe as selective inhibitors of thrombin and thrombin activation of protease activated receptors 1 and 4” (The Regents of the University of Michigan, priority 2003, dated 2006):
# Read-outs that look alike come from different tables or passages of the source. Ends that are not written are not given here.
# Tests used:
# [1] = target: T1, recombinant protease activated receptor 1 extracellular domain (rPAR1EC) (Homo sapiens, UniProt P25116); assay: Inhibition of RPPGF-biotin binding to rPAR1EC; conditions: 5 mM peptide, 50 μM RPPGF-biotin (FIG. 7); listed in decreasing order
# T1 construct: A portion of the extracellular domain of human PAR1 (Ala^26-Ser^99) (rPAR1EC) was expressed in Escherichia coli; His10-DDDDK (pET19b) (N); made in house; host or cells: E. coli BL21(DE3), pET19b
# T1 sequence (P25116 26-99): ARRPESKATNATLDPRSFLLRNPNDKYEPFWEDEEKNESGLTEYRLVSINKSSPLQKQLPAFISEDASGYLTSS
# [2] = target: T2, thrombocytin cleavage of recombinant human PAR1 extracellular domain (Homo sapiens, UniProt P25116); assay: Inhibition of thrombocytin-induced cleavage of rPAR1EC; assay type: biochemical; conditions: 16.7 nM thrombocytin, 45 min, 37° C.; below concentration that blocks the enzyme's proteolytic activity
# T2 construct: A portion of the extracellular domain of human PAR1 (Ala^26-Ser^99) (rPAR1EC) was expressed in Escherichia coli; His10-DDDDK (pET19b) (N); made in house; host or cells: E. coli BL21(DE3), pET19b (rPAR1EC)
# T2 sequence (P25116 26-99): T1 sequence (P25116 26-99)
# Procedure: (§1) Thrombocytin is a snake venom enzyme that activates platelets by cleaving PAR1 at the thrombin cleavage site (Santos et al., FEBS Letters. 18, 3570–3577 (2000)). […] The ability of MAP4-rOicPGF to block thrombocytin cleavage of rPAR1EC was performed as follows. One μg of rPAR1EC in 0.01 mM Tris-HCL, 0.2 M NaCl, pH 8.0 was incubated at 37° C. for 15 min or 45 min with 1 nM of α-thrombin or 0.5 μg/mL thrombocytin (16.7 nM), respectively, in the absence or presence of 0.025 to 1 mM MAP4-rOicPGF. The reaction mixture was separated on SDS-PAGE and stained with Coomassie Brilliant Blue. The cleaved gel images were scanned using the software Scion Image, ScionCorp, Frederick, Md.
# [3] = target: T3, α-thrombin cleavage of recombinant extracellular fragment of human PAR1 (rPAR1EC) (Homo sapiens, UniProt P00734); assay: Inhibition of α-thrombin-induced cleavage of rPAR1EC; assay type: biochemical
# T3 construct: A portion of the extracellular domain of human PAR1 (Ala^26-Ser^99) (rPAR1EC) was expressed in Escherichia coli; with 1 nM of α-thrombin or 0.5 μg/mL thrombocytin (16.7 nM); His10-DDDDK (pET19b) (N); made in house; host or cells: E. coli BL21(DE3), pET19b (rPAR1EC)
# Procedure: as §1
# [4] = target: thrombin (Homo sapiens, UniProt P00734); conditions: read-out: Ki (retrobinders to the active site of thrombin); cited from earlier work
# [5] = tested on: cyclic flow variations; conditions: Folt's model, canine; similar degree as aspirin or clopidogrel; cited from earlier work
# [6] = tested on: mouse carotid artery; conditions: cited from earlier work
# [7] = tested on: mouse platelets; conditions: cited from earlier work
# [8] = tested on: normal human lung fibroblasts (NHLF); assay: α-thrombin-induced calcium mobilization in fibroblasts; assay type: cell-based; conditions: 0.1 mM peptide; α-thrombin-induced calcium mobilization in fibroblasts
# Procedure: The second assay developed to assess peptides from the combinatorial libraries uses inhibition of α-thrombin-induced calcium mobilization in fibroblasts. Normal human lung fibroblasts (NHLF) were purchased from Clonetics, San Diego, Calif., an affiliate of Bio-Wittaker, Walkersville, Md. The cytoplasmic free Ca^2+ concentration ([Ca^2+]i) was measured using the fluorescent Ca^2+ indicator fura-2 (Molecular Probes, Inc., Eugene, Oreg.). Suspension of fibroblasts in Hepes-Tyrode's buffer were loaded with fura-2 by incubation at 37° C. with 2 μM fura-2/acetoxymethyl ester for 45 minutes according to the method of Rasmussen et al., J. Biol. Chem. 268, 14322 (1993). The labeled fibroblasts were separated from excess probe by washing by centrifugation at 1000 rpm (180×g). Aliquots of the labeled fibroblasts were transferred into a quartz cuvette with a magnetic stirrer, which was then placed in a thermostatically controlled chamber at 37° C. in a fluorescence spectrophotometer (Perkin-Elmer LS50B spectrofluorometer, Chicago, Ill.). Reagents, test peptide, and α-thrombin (0.25–2 nM), were sequentially added directly to the cuvette. The excitation wavelengths varied between 340 and 380 nm. Fluorescence was measured by recording emitted light at 510 nm as reported by Fisher et al., Mol Pharm. 35, 195 (1989). The minimum emission was determined on a solubilized fibroblast sample in the presence of 10 mM EDTA; maximum emission was determined on the same sample with 10 mM Ca^2+ added. The intrafibroblast free Ca^2+ concentration was calculated by the method of Grykiewicz et al., J. Biol. Chem. 260, 3440 (1985). […] The KD for fura-2 was assumed to be 224 nM. Rmax and Rmin are the maximum and minimum fluorescence ratios measured at the end of the experiment, respectively; Sf2 and Sb2 are the fluorescence values at 380 nm in the absence and presence of saturating [Ca^2+], respectively. The reaction was monitored for 3–5 minutes.
# [9] = target: T4, SILPAPRGYPGQ, thrombin binding and cleaving region on human PAR4 (Homo sapiens, UniProt Q96RI0); assay: Inhibition of SILPAPRGYPGQ-biotin binding to RPPGC; conditions: 10 micromolar biotinylated-SIL12; 0.001 to 5 mM peptide
# T4 construct: host or cells: synthetic peptide
# Procedure: Investigations were performed to determine if the compounds in the present invention interact with human PAR4. In FIG. 11, RPPGC (SEQ ID NO:10) was bound to plastic microtiter plates, After washing, biotinylated-[…] (SEQ ID NO:14) was incubated with the cuvette wells in the absence or presence of 0.001 to 5 mM RPPGF (SEQ ID NO:4), TH146, TH26, SIL12 (SEQ ID NO:9), or a scrambled peptide of RPPGF, FPRPG (Phe-Pro-Arg-Pro-Gly, SEQ ID NO:21). Peptide […]
# [10] = target: T5, recombinant extracellular fragment of human protease activated receptor 4 (rPAR4EC) (Homo sapiens, UniProt Q96RI0); assay: Inhibition of RPPGF-biotin binding to rPAR4EC; conditions: 5 mM peptide; 50 μM RPPGF-biotin
# T5 construct: starting with Gly^18, the first amino acid after the signal peptide is removed, and finishing with Arg^78; made in house; host or cells: E. coli BL21, pET19b-PAR4
# T5 sequence (Q96RI0 18-78): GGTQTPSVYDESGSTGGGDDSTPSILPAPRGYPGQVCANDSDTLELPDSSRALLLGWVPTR
# From the text: The extracellular fragment of human PAR4 has been expressed in bacteria. Human erythroleukemia (HEL) cells were used as a source for PAR4 mRNA. The level of PAR4 mRNA was substantially higher in HEL cells than washed human platelets. […] These primers give a 204 basepair fragment which code for a 61 amino acid hPAR4 protein starting with Gly^18, the first amino acid after the signal peptide is removed, and finishing with Arg^78, the last amino acid of the extracellular fragment (Xu et al. Proc. Natl. Acad. Sci. 95, 6642–6646 (1998)). The pET19b-PAR4 vector after cloning was used to transform BL21 cells to express the recombinant protein. The expressed recombinant protein was purified on a DEAE Sephadex followed by a nickel affinity column (the recombinant protein has a 10 His-tag on its amino terminal end). The isolated, recombinant extracellular domain of PAR4 (rPAREC) is about 15 kDa on 16.5% Tris-Tricine SDS-PAGE. The recombinant protein is recognized as being human PAR4 by detection with an antibody prepared from a peptide (S^41[…]^52) (SEQ ID NO:9) from human PAR4EC. Recombinant PAR4EC was linked to microtiter plate cuvette wells. Goat polyclonal antibody to human PAR1, PAR3, or PAR4 was incubated with the coated microtiter plate cuvette wells and antibody binding was detected. Only antibody to PAR4 detected rPAR4EC linked to the microtiter plate wells. […]
# [11] = tested on: coronary thrombosis; conditions: canine electrolytic injury model; similar to aspirin treatment; cited from earlier work
# [12] = tested on: lipopolysaccharide-treated rats; conditions: infusion; cited from earlier work
# [13] = tested on: platelet activation and deposition; conditions: ex vivo balloon injury; similar to aspirin; cited from earlier work
substance,measurement,setting,value
"β-Ala-Lys-2Lys-4(Arg-Pro-Pro-Gly-Phe) (RPPGF; also: four copies on beta-Ala-Lys-2Lys-4 branched core) [MAP4-RPPGF, four-branched peptide of RPPGF on a β-alanine-lysine core]",blocking of RPPGF-biotin binding to rPAR1EC by peptides,[1],blocked
same,concentration that blocks thrombocytin cleavage of rPAR1EC,[2],0.2 to 0.5 mM
same,effect on α-thrombin cleavage of rPAR1EC,"[3]; 1 nM α-thrombin, 15 min, 37° C.",prevents these enzymes from cleaving rPAR1EC
same,Ki,[4],1750 µM
same,effect on cyclic flow variations,[5],prevents cyclic flow variations
same,time to thrombosis of the mouse carotid artery,[6],delays the time to thrombosis
same,mouse platelet aggregation,[7],inhibits mouse platelet aggregation
"rPPGF (RPPGF; not fully specified (residue 1); printed as rPPGF) [Arg-Pro-Pro-Gly-Phe, peptide of the RPPGF analog library]",Ca^2^+ % Inhibition At 0.1 mM Peptide,[8],No Effect
same,blocking of RPPGF-biotin binding to rPAR1EC by peptides,[1],blocked
same,effect on α-thrombin cleavage of rPAR1EC,[3],prevents these enzymes from cleaving rPAR1EC
same,blocking of biotinylated-SILPAPRGYPGQ binding to RPPGC,[9],blocked
same,blocking of RPPGF-biotin binding to rPAR4EC,[10],block
same,effect on coronary thrombosis,[11],prevents coronary thrombosis
same,time to death,[12],delays the time to death
same,platelet activation and deposition,[13],reduced platelet activation and deposition
